B1: (UG)8 (ssRNA)
RNA: UGUGUGUGUGUGUGUG
B2: (UGGAA)8 (ssRNA)
RNA: UGGAAUGGAAUGGAAUGGAAUGGAAUGGAAUGGAAUGGAA
B3: (UGGAA)4 (ssRNA)
RNA: UGGAAUGGAAUGGAAUGGAA
B4: (UG)4 (ssRNA)
RNA: UGUGUGUG

Experiments:
TDP-43 WT [1] = biological target: T1, TDP-43 WT (UniProt Q13148 1-414); test: EMSA
TDP-43 WT [2] = biological target: T1, TDP-43 WT; test: CD
TDP-43 WT [3] = biological target: T1, TDP-43 WT; test: CD; remark: listed apart in the source

T1 sequence (Q13148 whole entry): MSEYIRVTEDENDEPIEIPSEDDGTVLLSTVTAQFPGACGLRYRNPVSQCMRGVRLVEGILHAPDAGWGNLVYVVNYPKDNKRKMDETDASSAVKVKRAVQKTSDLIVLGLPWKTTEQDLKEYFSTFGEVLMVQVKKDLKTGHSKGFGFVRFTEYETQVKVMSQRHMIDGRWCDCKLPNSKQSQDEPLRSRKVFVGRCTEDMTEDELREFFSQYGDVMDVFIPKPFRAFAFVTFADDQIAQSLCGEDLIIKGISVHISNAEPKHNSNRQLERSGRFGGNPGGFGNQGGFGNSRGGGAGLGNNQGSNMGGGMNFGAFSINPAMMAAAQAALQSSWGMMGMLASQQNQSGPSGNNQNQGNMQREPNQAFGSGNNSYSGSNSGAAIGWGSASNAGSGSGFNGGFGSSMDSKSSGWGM

Row | Binder | binding result (TDP-43 WT [1]) | also measured
1 | B1 | binds | 
2 | B2 | binds | 
3 | B3 |  | binding result (TDP-43 WT [2]): binds
4 | B4 |  | binding result (TDP-43 WT [3]): binds
